Patent publication US20240425609A1 (Regeneron, published 2024)

T1: mouse PD1 (mouse, UniProt Q02242 25-288)
T1 construct: whole, on cells; also called mPD1
T1 sequence (looked up): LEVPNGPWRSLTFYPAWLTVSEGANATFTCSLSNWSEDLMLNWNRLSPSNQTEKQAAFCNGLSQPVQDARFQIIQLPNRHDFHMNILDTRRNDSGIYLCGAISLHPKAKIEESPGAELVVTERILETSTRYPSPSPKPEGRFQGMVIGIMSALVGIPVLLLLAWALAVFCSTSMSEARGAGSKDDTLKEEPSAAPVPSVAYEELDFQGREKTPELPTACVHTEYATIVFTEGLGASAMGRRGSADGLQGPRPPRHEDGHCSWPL

T2: mouse CD20 (mouse, UniProt P19437 1-291)
T2 construct: whole, on cells; also called mCD20; murine CD20
T2 sequence (looked up): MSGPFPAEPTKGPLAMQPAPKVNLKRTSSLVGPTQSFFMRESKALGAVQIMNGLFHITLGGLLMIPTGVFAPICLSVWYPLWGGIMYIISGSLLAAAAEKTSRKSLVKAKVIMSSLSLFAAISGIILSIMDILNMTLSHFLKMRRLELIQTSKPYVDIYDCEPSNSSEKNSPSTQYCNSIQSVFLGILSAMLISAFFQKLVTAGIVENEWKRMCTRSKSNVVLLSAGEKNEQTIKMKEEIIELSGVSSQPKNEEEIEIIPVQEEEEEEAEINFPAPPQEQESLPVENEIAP

B1: 1 + 2 m20_mPL_1 (bispecific antibody, human IgG1, kappa)
heavy: QVQLQQPGAELVRPGTSVKLSCKASGYTFTSYWMHWIKQRPGQGLEWIGVIDPSDNYTKYNQKFKGKATLTVDTSSSTAYMQLSSLTSEDSAVYFCAREGYYGSSPWFAYWGQGTLVTVSSASTKGPSVFPLAPSSKSTSGGTAALGCLVKDYFPEPVTVSWNSGALTSGVHTFPAVLQSSGLYSLSSVVTVPSSSLGTQTYICNVNHKPSNTKVDKKVEPKSCDKTHTCPPCPAPEAEGAPSVFLFPPKPKDTLMISRTPEVTCVVVDVSHEDPEVKFNWYVDGVEVHNAKTKPREEQYNSTYRVVSVLTVLHQDWLNGKEYKCKVSNKALPSSIEKTISKAKGQPREPQVCTLPPSRDELTKNQVSLSCAVKGFYPSDIAVEWESNGQPENNYKTTPPVLDSDGSFFLVSKLTVDKSRWQQGNVFSCSVMHEALHNRFTQKSLSLSPGK
light: QIVMSQSPAILSASPGEKVTMTCRARSSVSYIHWYQQKPGSSPKPWIYATSNLASGVPGRFSGSGSGTSYSLTITRVEAEDAATYYCQQWSSKPPTFGGGTKLEIKRTVAAPSVFIFPPSDEQLKSGTASVVCLLNNFYPREAKVQWKVDNALQSGNSQESVTEQDSKDSTYSLSSTLTLSKADYEKHKVYACEVTHQGLSSPVTKSFNRGEC
chain: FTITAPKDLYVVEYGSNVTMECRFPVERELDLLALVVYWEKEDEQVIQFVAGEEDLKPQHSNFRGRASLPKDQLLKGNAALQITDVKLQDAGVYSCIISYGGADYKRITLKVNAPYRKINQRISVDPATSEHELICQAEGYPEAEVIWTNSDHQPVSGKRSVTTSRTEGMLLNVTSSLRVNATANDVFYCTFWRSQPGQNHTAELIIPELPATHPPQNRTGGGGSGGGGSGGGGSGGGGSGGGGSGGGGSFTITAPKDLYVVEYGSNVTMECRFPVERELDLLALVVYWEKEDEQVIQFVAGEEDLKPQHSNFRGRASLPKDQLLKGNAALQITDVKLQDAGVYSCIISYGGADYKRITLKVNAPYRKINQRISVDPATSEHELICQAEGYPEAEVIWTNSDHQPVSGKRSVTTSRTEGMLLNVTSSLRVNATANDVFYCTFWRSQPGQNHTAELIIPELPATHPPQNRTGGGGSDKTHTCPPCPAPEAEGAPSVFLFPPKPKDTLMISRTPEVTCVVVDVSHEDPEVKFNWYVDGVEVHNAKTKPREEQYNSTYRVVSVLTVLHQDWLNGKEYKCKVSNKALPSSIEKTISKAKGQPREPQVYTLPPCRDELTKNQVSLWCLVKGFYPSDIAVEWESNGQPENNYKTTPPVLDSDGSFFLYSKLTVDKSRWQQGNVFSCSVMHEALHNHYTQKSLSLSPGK
B2: 2 + 2 m20_mPL_3 (bispecific antibody, human IgG1, kappa)
heavy: QVQLQQPGAELVRPGTSVKLSCKASGYTFTSYWMHWIKQRPGQGLEWIGVIDPSDNYTKYNQKFKGKATLTVDTSSSTAYMQLSSLTSEDSAVYFCAREGYYGSSPWFAYWGQGTLVTVSSASTKGPSVFPLAPSSKSTSGGTAALGCLVKDYFPEPVTVSWNSGALTSGVHTFPAVLQSSGLYSLSSVVTVPSSSLGTQTYICNVNHKPSNTKVDKKVEPKSCDKTHTCPPCPAPEAEGAPSVFLFPPKPKDTLMISRTPEVTCVVVDVSHEDPEVKFNWYVDGVEVHNAKTKPREEQYNSTYRVVSVLTVLHQDWLNGKEYKCKVSNKALPSSIEKTISKAKGQPREPQVCTLPPSRDELTKNQVSLSCAVKGFYPSDIAVEWESNGQPENNYKTTPPVLDSDGSFFLVSKLTVDKSRWQQGNVFSCSVMHEALHNRFTQKSLSLSPGKGGGGSGGGGSGGGGSQVQLQQPGAELVRPGTSVKLSCKASGYTFTSYWMHWIKQRPGQGLEWIGVIDPSDNYTKYNQKFKGKATLTVDTSSSTAYMQLSSLTSEDSAVYFCAREGYYGSSPWFAYWGQGTLVTVSSASTKGPSVFPLAPSSKSTSGGTAALGCLVKDYFPEPVTVSWNSGALTSGVHTFPAVLQSSGLYSLSSVVTVPSSSLGTQTYICNVNHKPSNTKVDKKVEPKSCD
chain: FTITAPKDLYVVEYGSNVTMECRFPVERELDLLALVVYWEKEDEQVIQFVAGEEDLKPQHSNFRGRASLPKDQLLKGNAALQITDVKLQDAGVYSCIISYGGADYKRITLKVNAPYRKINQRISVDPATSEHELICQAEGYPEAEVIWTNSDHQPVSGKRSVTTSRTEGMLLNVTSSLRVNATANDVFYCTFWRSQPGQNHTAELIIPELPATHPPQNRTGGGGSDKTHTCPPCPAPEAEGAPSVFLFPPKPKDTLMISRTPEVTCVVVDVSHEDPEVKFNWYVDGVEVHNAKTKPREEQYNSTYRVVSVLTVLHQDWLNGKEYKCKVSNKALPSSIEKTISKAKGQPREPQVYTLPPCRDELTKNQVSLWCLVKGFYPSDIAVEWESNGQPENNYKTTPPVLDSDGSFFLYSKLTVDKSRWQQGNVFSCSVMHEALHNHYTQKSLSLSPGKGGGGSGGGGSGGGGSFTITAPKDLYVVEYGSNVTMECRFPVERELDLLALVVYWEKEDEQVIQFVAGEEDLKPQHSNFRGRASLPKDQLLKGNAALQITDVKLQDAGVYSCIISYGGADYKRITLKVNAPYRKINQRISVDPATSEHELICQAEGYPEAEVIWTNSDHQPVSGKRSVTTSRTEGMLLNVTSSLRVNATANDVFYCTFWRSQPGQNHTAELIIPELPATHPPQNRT
light: B1 light

Tests used:
mouse PD1 [1] = biological target: T1, mouse PD1; assay: flow cytometry on Jurkat/mPD1 cells
Description: (§1) Cells (HEK 293, MC38 over-expressing mCD20 or Jurkat over-expressing mPD1) were resuspended in FACS wash (PBS with 1% FBS) at 1×10⁸ cells/mL. The staining was performed in 1×10⁵ cells per well. The antibodies were diluted with a ratio of 1:5 from a starting concentration of 1.3×10⁻⁷ M. The diluted antibodies were then added into the wells containing cells. Cells were stained for 30 min at 2-8° C. and washed twice with FACS wash buffer. APC-conjugated goat anti-human IgG (Jackson Immuno Research, 109-607-003, 1:400) was added to stain the cells for 30 min at 2-8° C. Following washing, cells were fixed in 2% paraformaldehyde for 30 min at 2-8° C. After two washes, stained cells were analyzed using BD LSRFortessa™ FACS instrument. The results were analyzed by FlowJo. FSC/SSC gates were used to select mononuclear cells.

mouse CD20 = biological target: T2, mouse CD20; assay: flow cytometry on MC38/mCD20 cells
Description: as §1

mouse PD1 [2] = biological target: T1, mouse PD1; assay: cell-based or functional assay

| Binder | EC50 (mouse PD1 [1]) [nM] | Max MFI (mouse PD1 [1]) [MFI] | Max MFI (mouse CD20) [MFI] | Max % inhibition, AP1-luciferase bioassay, 2.5 nM CD3 bsAb (mouse PD1 [2]) [%] | EC50 (mouse CD20) [nM] | IC50 (M), AP1-luciferase bioassay, 2.5 nM CD3 bsAb (mouse PD1 [2]) [M] |
| --- | --- | --- | --- | --- | --- | --- |
| B1 | 22.4 | 16700 | 20300 | 11 |  |  |
| B2 | 6.31 | 6980 | 35300 | 33 | 8.42 | 6.5e-11 |
